Our source for the Kd values is article PMC12685124 (Proceedings of the National Academy of Sciences of the …, 2025).

In test [1] the target is T1, mesencephalic astrocyte-derived neurotrophic factor (Manf), recombinant (UniProt P55145 25-182). Nature of the test: MST.
For test [2], the target named is T2, brain-derived neurotrophic factor (BDNF) (UniProt P23560 19-247).
T2 sequence (looked up): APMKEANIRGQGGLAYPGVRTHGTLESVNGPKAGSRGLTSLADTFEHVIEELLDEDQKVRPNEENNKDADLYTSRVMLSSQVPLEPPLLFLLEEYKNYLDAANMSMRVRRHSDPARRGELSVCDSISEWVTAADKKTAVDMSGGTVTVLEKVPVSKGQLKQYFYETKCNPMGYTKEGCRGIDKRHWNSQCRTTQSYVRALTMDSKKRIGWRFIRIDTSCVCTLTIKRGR
Nature of the test: MST.

In test [3] the target is T1, mesencephalic astrocyte-derived …. In words: ELISA. (In general: ELISA stands for enzyme-linked immunosorbent assay.)

B1: recombinant Np55 protein, extracellular domain (SinoBiological) (domain or fragment)
chain: QNEPRIVTSEEVIIRDSPVLPVTLQCNLTSSSHTLTYSYWTKNGVELSATRKNASNMEYRINKPRAEDSGEYHCVYHFVSAPKANATIEVKAAPDITGHKRSENKNEGQDATMYCKSVGYPHPDWIWRKKENGMPMDIVNTSGRFFIINKENYTELNIVNLQITEDPGEYECNATNAIGSASVVTVLRVRSHLAP
modifications: RED-NHS fluorescent label (in the MST assay only)
Take B1: the Kd (in general, the free concentration of one partner at which half of the binding sites on the other are occupied at equilibrium, for simple one-to-one binding) in test [1] worked out at 34.6 ± 7.19 nM; in test [2] it was 1740 ± 410 nM; in test [3], 14.5 ± 1.17 nM.
